Reference: patent publication US20220220218A1 (JIANGSU HENGRUI MEDICINE, published 2022)

T1: human CD73 on tumor cell line MDA-MB-231 that highly expresses human CD73 (human, UniProt P21589 27-549)
T1 sequence (looked up): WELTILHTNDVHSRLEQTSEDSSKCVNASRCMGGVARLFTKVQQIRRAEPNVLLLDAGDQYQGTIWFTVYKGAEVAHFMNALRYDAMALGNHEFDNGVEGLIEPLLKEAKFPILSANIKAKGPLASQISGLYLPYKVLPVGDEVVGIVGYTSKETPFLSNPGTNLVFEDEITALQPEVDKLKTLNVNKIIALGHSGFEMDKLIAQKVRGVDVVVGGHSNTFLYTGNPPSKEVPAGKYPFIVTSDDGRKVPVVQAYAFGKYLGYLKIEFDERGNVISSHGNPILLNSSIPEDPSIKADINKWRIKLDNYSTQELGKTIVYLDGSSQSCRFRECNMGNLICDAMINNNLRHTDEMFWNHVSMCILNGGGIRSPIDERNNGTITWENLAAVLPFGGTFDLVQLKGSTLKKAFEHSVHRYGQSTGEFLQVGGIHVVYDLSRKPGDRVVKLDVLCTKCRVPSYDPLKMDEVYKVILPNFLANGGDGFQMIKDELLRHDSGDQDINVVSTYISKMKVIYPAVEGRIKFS

T2: cynomolgus monkey CD73/NT5E protein (His tag), Sino Biological Cat. No. 90192-C08H (cynomolgus monkey, UniProt A0A2K5V5U7 27-547)
T2 construct: also called cynomolgus monkey CD73 protein; cynoCD73; not shown: His tag
T2 sequence: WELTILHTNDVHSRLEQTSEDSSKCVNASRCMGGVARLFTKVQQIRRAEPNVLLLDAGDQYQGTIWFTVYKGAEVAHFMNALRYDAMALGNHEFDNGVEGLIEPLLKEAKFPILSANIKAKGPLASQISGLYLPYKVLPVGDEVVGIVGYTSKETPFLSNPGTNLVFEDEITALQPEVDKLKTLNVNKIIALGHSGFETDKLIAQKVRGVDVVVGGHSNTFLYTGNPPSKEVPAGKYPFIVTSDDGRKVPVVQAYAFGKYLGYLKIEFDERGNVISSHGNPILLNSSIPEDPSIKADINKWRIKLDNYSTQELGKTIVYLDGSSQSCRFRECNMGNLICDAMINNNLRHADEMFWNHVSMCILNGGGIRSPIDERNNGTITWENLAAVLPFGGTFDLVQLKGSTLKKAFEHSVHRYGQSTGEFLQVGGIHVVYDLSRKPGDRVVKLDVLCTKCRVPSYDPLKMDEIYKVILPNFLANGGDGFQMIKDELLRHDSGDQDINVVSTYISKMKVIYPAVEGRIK


Columns and labels:
[1] = molecular target: T1, human CD73 on tumor cell line …; assay: cell-based or functional assay
[2] = molecular target: T1, human CD73 on tumor cell line …; assay: cell ELISA on fixed MDA-MB-231 cells
Experimental: The MDA-MB-231 cells were directly coated onto a 96-well microtiter plate. The signal strength after the addition of the antibody was used to determine the binding activity of the antibody to MDA-MB-231 cells. The specific experimental procedures were as follows:
MDA-MB-231 cells (ATCC, Cat No HTB-26) were seeded in the 96-well plate (Corning, Cat No. CLS3599-100EA) at a density of 6×10⁵/ml, 100 μl/well, and cultured overnight. The supernatant was discarded, the plate was washed with PBS for three times, 100 μl/well of cell immune fixed solution (Beyotime, Cat No. P0098) was added and fixed for half an hour at room temperature, and the plate washed with PBS for four times. The liquid was discarded, 250 μl/well blocking solution (5% skim milk diluted in PBS) was added, and incubated in an incubator at 37° C. for 3 hours. After the blocking was finished, the blocking solution was discarded, the plate was washed for 5 times with PBST buffer, 50 μl/well of various concentrations of each of the test antibodies were added, and incubated in an incubator at 37° C. for 1 hour. After the incubation was finished, the plate was washed for 5 times with PBST, 50 μl/well of HRP-labeled goat anti-mouse secondary antibody (Jackson Immuno Research, Cat No. 115-035-003) or goat anti-human secondary antibody (Jackson Immuno Research, Cat No. 109-035-003) diluted with sample diluent was added, and incubated at 37° C. for 1 hour. The plate was washed for 5 times with PBST, 50 μl/well of TMB chromogenic substrate (KPL, Cat No. 52-00-03) was added, incubated at room temperature for 5-15 min, and 50 μl/well of 1M H₂SO₄ was added to stop the reaction. The absorbance value was read by a microplate reader (Molecular Devices, VERSA max) at a wavelength of 450 nm, and the data was analyzed with GraphPad Prism 5. The binding of anti-CD73 antibody to MDA-MB-231 cells over-expressing CD73 was calculated as EC50 value.

[3] = molecular target: T2, cynomolgus monkey CD73/NT5E protein …; assay: SPR Biacore T200; antibody captured on Protein A chip, cynoCD73 in flow; 1:1 Langmuir
Description: In this experiment, Biacore instrument was used to determine the affinity of the humanized anti-CD73 antibodies to be tested with human CD73 (huCD73) and monkey CD73 (cynoCD73).
A certain amount of test antibody was affinity-captured with Protein A biosensing chip (Cat. #29127556, GE), and then a certain concentration of human or monkey CD73 antigen was allowed to flow through the surface of the chip. The reaction signals were detected in real time with Biacore instrument (Biacore T200, GE) to generate a binding and dissociation curve. At the end of each cycle, after the dissociation was completed, the biosensor chip was washed and regenerated with Glycine-HCl, pH1.5 (Cat. #BR-1003-54, GE). The running buffer for the assay was 1×HBS-EP buffer solution (Cat. #BR-1001-88, GE).
The data obtained from the experiment was fitted against (1:1) Langmuir model using GE Biacore T200 Evaluation version 3.0 software, and the affinity values were obtained, as shown in Table 12 and Table 13 for details.

Row | Binder | IC50 (nM) in the assay showing the inhibition of enzyme activity in MDA-MB-231 cell [1] [nM] | EC50 [2] [nM] | Kd [3] [nM] | koff [3] [s⁻¹] | kon [3] [M⁻¹ s⁻¹]
1 | CPX006 (antibody CPX-006 disclosed in patent application WO2018013611) (antibody, V domains shown) VH: QVQLVQSGAEVEKPGASVKVSCKASGYTFTSYWITWVRQAPGQGLEWMGDIYPGSGNTNYNEKFKTRVTITADKSTSTAYMELSSLRSEDTAVYYCAKEGGLTTEDYALDYWGQGTLVTVSS VL: EIVLTQSPATLSLSPGERATLSCRASKNVSTSGYSYMHWYQQKPGQAPRLLIYLASNLESGIPPRFSGSGYGTDFTLTINNIESEDAAYYFCQHSRELPFTFGQGTKVEIKR | 10.2 | 0.433 | – | – | –
2 | Hab108.64 (antibody, human IgG1, kappa, V domains shown, also called humanized antibody of mab108) VH: EVTLKQSGPGLVKPTETLTLTCTVSGFSLSSYGIQWVRQPPGKGLEWLGVIWSGGSADYNAAFISRLTISKDTSKSQVVLTMTNMDPVDTATYYCAGQYGSVWGQGTLVTVSS VL: DIQMTQSPSSLSASVGDRVTITCRASQDIGDRLNWLQQKPGGAIKRLIYATSSLDSGVPKRFSGSGSGTEYTLTISSLQPEDFATYYCLQYAGSWTFGGGTKVEIKR | 0.53 | 0.062 | 0.166 | 4.24e-05 | 256000

Further lines, results first:

Row | IC50 (nM) in the assay showing the inhibition of enzyme activity in MDA-MB-231 cell [1] [nM] | EC50 [2] [nM] | Kd [3] [nM] | koff [3] [s⁻¹] | kon [3] [M⁻¹ s⁻¹] | Binder
3 | 0.329 | 0.056 | 0.0489 | 3.45e-05 | 704000 | Hab110.21 (antibody, human IgG1, kappa, V domains shown, also called humanized antibody of mab110) VH: EVQLVQSGAEVKKPGASVKVSCKASGYTFTSYTMHWVRQAPGQRLEWMGYINPNSFYIEYNQKFKDRVTITRDTSASTAYMELSSLRSEDTAVYYCARGDYDLFYDMDNWGQGTTVTVSS VL: DIQMTQSPSSLSASVGDRVTITCRASQDIGNSLNWLQQKPGKAIKRLIYATFRLDSGVPSRFSGSRSGTEYTLTISSLQPEDFATYYCQQYASFPWTFGGGTKVEIKR
4 | 0.505 | 0.072 | 0.0699 | 1.86e-05 | 266000 | Hab127.31d (antibody, human IgG1, kappa, V domains shown, also called humanized antibody of mab127) VH: EVQLVQSGAEVKKPGASVKVSCKASGYTFTAYFMNWVRQAPGQGLEWMGRIYHNKGDTFYSQKFKGRVTMTVDKSTSTVYMELSSLRSEDTAVYYCATSYVGDWGQGTTVTVSS VL: DIQMTQSPSSLSASVGDRVTITCRASQDIGDSLNWLQQKPGGALKRLIYATSSLDSGVPSRFSGSGSGTEYTLTISSLQPEDFATYYCLQYASFPWTFGGGTKVEIKR
